Data on one substance can be found in patent US20230213527A1, “COMPOSITIONS AND METHODS FOR POLYPEPTIDE ANALYSIS” (Quantum-Si Incorporated, priority 2021, published 2023).

For test [1], the target named is acetyl-lysine peptide of Example 6 (printed as RLK{acetyl}FIAYPDDD, SEQ ID NO: 826), state with N-terminal AK{acetyl}. Description: single-molecule on-chip sequencing with PS691, PS610, PS961 and PS1165.
Test [2] has as its target lysine peptide of Example 6 (printed as …, SEQ ID NO: 825), state with N-terminal AK. Described as above.

Sequence of PS1165 (Q13490 other isoform, or with tags, fused parts or gaps): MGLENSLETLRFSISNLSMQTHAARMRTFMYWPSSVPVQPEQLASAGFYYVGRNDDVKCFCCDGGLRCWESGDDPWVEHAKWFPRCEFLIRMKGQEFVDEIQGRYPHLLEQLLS

With PS1165 (from UniProt Q13490 250-361), the values for the RS mean PD in test [1] and in test [2] were 2.2 s and 1.3 s, respectively.
